Experimental findings from paper PMC1635293 are described below.

What all share (assay): competition
In series [1] the target is T1, Exportin-5 (hsExp5);hsRanQ69L (GTP form) (human;human, UniProt Q9HAV4;P62826 1-1204;1-216, |Q69L).
For series [2], the target named is Exportin-5 (dmExp5);dmRanQ69L (GTP form) (Drosophila melanogaster?;Drosophila, UniProt Q9BP41;Q9VZ23 1-1241;1-216, |Q69L).
Series [3] addresses T2, Msn5p (yeast exportin-5 orthologue);Gsp1pQ71L (GTP form) (budding yeast;yeast, UniProt P52918;P32835 1-1224;1-219, |Q71L).
Series [4] deals with T1, Exportin-5 (hsExp5);hsRanQ69L (GTP form). This is another data set of the same source.
For series [5], the target named is T2, Msn5p (yeast exportin-5 …). The source holds these as a separate data set.

Where two headings read alike, the source gives them in different places.

T1 sequence (Q9HAV4 whole entry Q69L, one chain of several): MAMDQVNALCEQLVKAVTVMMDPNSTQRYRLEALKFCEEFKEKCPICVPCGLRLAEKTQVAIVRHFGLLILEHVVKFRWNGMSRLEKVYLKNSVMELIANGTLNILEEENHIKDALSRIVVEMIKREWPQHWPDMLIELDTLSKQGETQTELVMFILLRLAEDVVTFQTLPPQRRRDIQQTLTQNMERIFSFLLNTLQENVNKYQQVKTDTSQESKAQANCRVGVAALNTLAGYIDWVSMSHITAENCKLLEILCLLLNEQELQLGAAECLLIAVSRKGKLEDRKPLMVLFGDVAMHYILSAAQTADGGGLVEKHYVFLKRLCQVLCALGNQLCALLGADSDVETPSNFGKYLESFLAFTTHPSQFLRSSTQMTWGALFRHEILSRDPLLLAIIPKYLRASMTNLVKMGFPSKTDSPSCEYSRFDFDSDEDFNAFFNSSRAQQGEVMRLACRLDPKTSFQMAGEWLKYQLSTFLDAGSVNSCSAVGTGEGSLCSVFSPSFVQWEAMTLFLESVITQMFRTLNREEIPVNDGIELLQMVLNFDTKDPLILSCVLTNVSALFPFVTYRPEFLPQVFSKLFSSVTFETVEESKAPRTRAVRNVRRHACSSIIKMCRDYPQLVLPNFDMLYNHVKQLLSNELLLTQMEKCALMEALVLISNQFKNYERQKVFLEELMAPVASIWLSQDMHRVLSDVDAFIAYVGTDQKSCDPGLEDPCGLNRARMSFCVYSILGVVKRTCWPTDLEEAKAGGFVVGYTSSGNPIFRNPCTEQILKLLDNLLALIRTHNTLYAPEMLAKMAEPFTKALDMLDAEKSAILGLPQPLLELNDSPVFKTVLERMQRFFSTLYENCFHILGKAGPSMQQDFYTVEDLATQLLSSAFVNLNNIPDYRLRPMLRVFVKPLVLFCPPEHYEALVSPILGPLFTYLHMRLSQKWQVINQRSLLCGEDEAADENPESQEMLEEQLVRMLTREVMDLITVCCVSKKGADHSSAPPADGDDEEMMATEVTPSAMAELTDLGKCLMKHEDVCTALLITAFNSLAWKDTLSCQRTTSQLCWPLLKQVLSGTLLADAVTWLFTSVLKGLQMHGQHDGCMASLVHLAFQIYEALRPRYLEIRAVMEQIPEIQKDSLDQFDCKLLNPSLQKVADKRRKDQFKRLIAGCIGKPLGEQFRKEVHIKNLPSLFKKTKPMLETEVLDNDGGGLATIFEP

B1: dsDNA encoding the same sequence as the dsRNA (dsDNA)
DNA 1: GGGCTTTCAGTCGGATGTTTGCAGC
DNA 2: TGCAAACATCCGACTGAAAGC
Regarding B1, the binding result in series [1], in series [2] and in series [3] was “no binding” throughout.

B2: dsRNA with 2 nt 3' overhang (22 bp dsRNA) (dsRNA)
RNA 1: GGGCUUUCAGUCGGAUGUUUGCAGC
RNA 2: UGCAAACAUCCGACUGAAAGC
Regarding B2, the binding result in series [1] and in series [2] was “binds” in each case.

B3: dsRNA with 2 nt 5' overhang (dsRNA)
RNA 1: GGGCUUUCAGUCGGAUGUUUG
RNA 2: UGCAAACAUCCGACUGAAAGC
Turning to B3, the binding result in series [4] and in series [5] was “no binding” each time.
